Residue numbers refer to the chain shown, from its start. Where “and” joins values, the source holds several entries; their conditions need not be identical. Equal entries are not always repeated.
T1: recombinant human BDCA2 extracellular domain (UniProt Q8WTT0, residues 45-213) (human, UniProt Q8WTT0 45-213)
T1 construct: range 45-213; also called recombinant BDCA2 proteins; BDCA2 proteins
T1 sequence (looked up): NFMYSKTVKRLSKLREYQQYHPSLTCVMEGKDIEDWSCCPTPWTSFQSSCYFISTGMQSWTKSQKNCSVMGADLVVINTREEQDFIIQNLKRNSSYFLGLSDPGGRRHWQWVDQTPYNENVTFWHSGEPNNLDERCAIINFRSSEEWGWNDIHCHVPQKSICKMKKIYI

T2: human BDCA2 on human plasmacytoid dendritic cells (human, UniProt Q8WTT0 1-213)
T2 sequence (looked up): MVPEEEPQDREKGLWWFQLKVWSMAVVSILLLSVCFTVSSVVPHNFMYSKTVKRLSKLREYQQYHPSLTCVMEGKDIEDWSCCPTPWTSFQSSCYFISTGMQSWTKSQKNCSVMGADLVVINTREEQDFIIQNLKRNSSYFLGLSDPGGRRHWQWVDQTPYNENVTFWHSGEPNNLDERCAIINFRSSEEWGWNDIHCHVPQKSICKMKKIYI

T3: BDCA-2 antigen (Biorbyt CLEC4C orb358925) (human, UniProt Q8WTT0)
T3 construct: recombinant protein, construct not described; It is kept apart from m4 because it is a different preparation; also called human BDCA2 antigen
T3 sequence (antigen, looked up): T1 sequence (looked up)

T4: recombinant rhesus BDCA2 extracellular domain (UniProt A0A1D5QFY5, residues 45-212) (rhesus, UniProt G7N5W2 45-211)
T4 construct: also called Monkey BDCA2
T4 sequence: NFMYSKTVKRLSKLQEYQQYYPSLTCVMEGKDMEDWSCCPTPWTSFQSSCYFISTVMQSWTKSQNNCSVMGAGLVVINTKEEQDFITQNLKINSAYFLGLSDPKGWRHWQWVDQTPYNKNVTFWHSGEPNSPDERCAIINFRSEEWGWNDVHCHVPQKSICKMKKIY

B1: NPB-303_A.D (antibody, V domains shown)
VH: EVQLVESGGGLVKPGGSLRLSCAASGFTFSTMSWVRQAPGKRLEWVASISSGGSTYYPDSVKGRFTISRDNAKNSLYLQMNSLRAEDTAVYYCARPSYEGYSSWFAYWGQGTLVTVSS
VL: EIVLTQSPATLSLSPGERATLSCKASQSVDYEGEGFMNWYQQKPGQAPRLLIYTASNLESGVPARFSGSGSGTDFTLTISSLEPEDFAVYYCQQSNEDPWTFGGGTKVEIK
notes: whole antibody captured by anti-human Fc; Made at small (3 mL) and large (100 mL) scale
B2: NPB-303 humanized anti-BDCA2 monoclonal antibody (huIgG1) (antibody, V domains shown)
VH: B1 VH with E99D
VL: EIVLTQSPATLSLSPGERATLSCKASQSVDYDGDGFMNWYQQKPGQAPRLLIYTASNLESGVPARFSGSGSGTDFTLTISSLEPEDFAVYYCQQSNEDPWTFGGGTKVEIKR
notes: Humanized from mouse mAb 12b, human IgG1/kappa
B3: NPB-303_A (antibody, V domains shown)
VH: B1 VH
VL: B1 VL with E32D, E34D
notes: whole antibody captured by anti-human Fc
B4: NPB-303_A.F (antibody, V domains shown)
VH: B1 VH
VL: B1 VL with E34D, G35A
notes: as for B3
B5: NPB-303_B.H (antibody, V domains shown)
VH: B1 VH with E99D, G100A
VL: B1 VL with E32S, E34S
notes: as for B3
B6: NPB-303_C.F (antibody, V domains shown)
VH: B1 VH with E99S
VL: B1 VL with E34D, G35A
notes: as for B3
B7: NPB-303_B (antibody, V domains shown)
VH: B1 VH with E99D, G100A
VL: B1 VL with E32D, E34D
notes: as for B3
B8: NPB-303_C.E (antibody, V domains shown)
VH: B1 VH with E99S
VL: B1 VL with E32D, G33A, E34D, G35A
notes: as for B3
B9: NPB-303_A.E (antibody, V domains shown)
VH: B1 VH
VL: B1 VL with E32D, G33A, E34D, G35A
notes: as for B3
B10: NPB-303_B.E (antibody, V domains shown)
VH: B1 VH with E99D, G100A
VL: B1 VL with E32D, G33A, E34D, G35A
notes: as for B3
B11: NPB-303_A.G (antibody, V domains shown)
VH: B1 VH
VL: B1 VL with E32D, G33A
notes: as for B3
B12: NPB-303_G (antibody, V domains shown)
VH: B1 VH with E99D
VL: B1 VL with E32D, G33A
notes: as for B3
B13: NPB-303_C (antibody, V domains shown)
VH: B1 VH with E99S
VL: B1 VL with E32D, E34D
notes: as for B3
B14: NPB-303_B.F (antibody, V domains shown)
VH: B1 VH with E99D, G100A
VL: B1 VL with E34D, G35A
notes: as for B3
B15: NPB-303_B.G (antibody, V domains shown)
VH: B1 VH with E99D, G100A
VL: B1 VL with E32D, G33A
notes: as for B3
B16: NPB-303_C.H (antibody, V domains shown)
VH: B1 VH with E99S
VL: B1 VL with E32S, E34S
notes: as for B3
B17: NPB-303_F (antibody, V domains shown)
VH: B1 VH with E99D
VL: B1 VL with E34D, G35A
notes: as for B3
B18: NPB-303_D (antibody, V domains shown)
VH: B1 VH with E99D
VL: B1 VL
notes: as for B3
B19: NPB-303_A.H (antibody, V domains shown)
VH: B1 VH
VL: B1 VL with E32S, E34S
notes: as for B3

Each molecule was assayed against human BDCA2 on human plasmacytoid dendritic cells (human) (UniProt Q8WTT0) (assay: flow cytometry on human PBMC with APCCy7-labelled control antibody, gate Lin- then CD4+CD123+ (pDC)).

% of the gated Lin-CD123+ cells in Q2 (CD123+, APCCy7+) | Molecule
7.29% | mIgG1-APCCy7 (antibody)

What follows are molecules tested against T1, recombinant human BDCA2 extracellular … (assay: SPR (Biacore), recombinant BDCA2; large-scale (100 mL) batch).
Protocol: (§1) BDCA2 antibody binding kinetics were measured using a Biacore surface plasmon resonance (SPR) instrument (GE Life Sciences). Briefly, anti-BDCA2 antibodies were captured on an anti-human Fc chip. The recombinant BDCA2 proteins were then flowed over the captured antibodies over a range of concentrations, at a rate of 50 μL/minute. The data was analyzed to determine kinetic constants using the BIAevaluation software package (GE Life Sciences). The sensorgrams of SPR based affinity testing for all 24 antibodies are shown in FIG. 55, and the biophysical characteristics of all 24 antibodies are summarized in Table 5.

Kd | koff | kon | Molecule
0.927 nM | 0.000133 s⁻¹ | 144000 M⁻¹ s⁻¹ | B1

These molecules were tested against T1, recombinant human BDCA2 extracellular … (assay: SPR (Biacore), antibody as ligand, HsCD303HIS as sample, 25 °C, 1:1 Binding fit; Table 1 prints 7.29 x 10^5, but the sheet's exponent fits the printed kd 3.271E-4 and KD 4.487E-9).

kon | Molecule
72900 M⁻¹ s⁻¹ | B2

What follows are molecules tested against T2, human BDCA2 on human plasmacytoid … (assay: cell-based or functional assay).

IC50 of inhibition of IFNα production by CpG-stimulated human PBMC (multiple donors) | Molecule
~3 ng/mL | B2

Each molecule was assayed against T3, BDCA-2 antigen (Biorbyt CLEC4C …) (assay: ELISA, plate coated with BDCA-2 antigen, detection with HRP anti-human IgG Fc, A450 corrected by A590).
Protocol: Briefly, Nunc MaxiSorp 96-well plates were coated with BDCA-2 antigen (Biorbyt CLEC4C orb358925) overnight at 4° C. After washing, the plates were blocked by the Blocking Buffer (1% BSA in 1×PBS). […] After 1 hour incubation at room temperature, the plates were washed and added with the secondary antibody (HIRP-conjugated Goat anti-Human IgG Fc antibody; ThermoFisher A18829) for 1 hour at RT. The signals were developed by adding TMB substrate reagent (ThermoFisher 34021). The signals at 450 nm and 590 nm were read on the plate reader.

EC50 (read off the curve) | Molecule
~0.5 nM and ~0.3 nM | B2

These molecules were tested against T1, recombinant human BDCA2 extracellular … (assay: SPR (Biacore), antibody captured on anti-human Fc chip, recombinant BDCA2 flowed over; small-scale batch).
Protocol: as §1

Kd | koff | kon | Molecule
1.19 nM | 0.000156 s⁻¹ | 131000 M⁻¹ s⁻¹ | B2
1.01 nM | 0.000145 s⁻¹ | 144000 M⁻¹ s⁻¹ | B3
1.41 nM | 0.000164 s⁻¹ | 116000 M⁻¹ s⁻¹ | B4
3.47 nM | 0.000272 s⁻¹ | 78500 M⁻¹ s⁻¹ | B5
1.77 nM | 0.000195 s⁻¹ | 110000 M⁻¹ s⁻¹ | B6
2.06 nM | 0.000193 s⁻¹ | 93900 M⁻¹ s⁻¹ | B7
1.89 nM | 0.000237 s⁻¹ | 125000 M⁻¹ s⁻¹ | B8
1.49 nM | 0.000183 s⁻¹ | 123000 M⁻¹ s⁻¹ | B9
1.06 nM | 0.000138 s⁻¹ | 130000 M⁻¹ s⁻¹ | B1
4.77 nM | 0.000409 s⁻¹ | 85600 M⁻¹ s⁻¹ | B10
0.998 nM | 0.000142 s⁻¹ | 142000 M⁻¹ s⁻¹ | B11
1.31 nM | 0.000166 s⁻¹ | 126000 M⁻¹ s⁻¹ | B12
1.2 nM | 0.000165 s⁻¹ | 138000 M⁻¹ s⁻¹ | B13
3.44 nM | 0.000232 s⁻¹ | 67600 M⁻¹ s⁻¹ | B14
2.63 nM | 0.000286 s⁻¹ | 109000 M⁻¹ s⁻¹ | B15
2.02 nM | 0.000197 s⁻¹ | 97400 M⁻¹ s⁻¹ | B16
1.74 nM | 0.000187 s⁻¹ | 107000 M⁻¹ s⁻¹ | B17
1.25 nM | 0.000144 s⁻¹ | 115000 M⁻¹ s⁻¹ | B18
1.49 nM | 0.000159 s⁻¹ | 107000 M⁻¹ s⁻¹ | B19

Each molecule was assayed against T1, recombinant human BDCA2 extracellular … (assay: SPR / in vitro binding to BDCA2 proteins (FIG. 7, FIG. 8)).

Kd | koff | kon | Molecule
~1 nM | ~0.00033 s⁻¹ | ~210000 M⁻¹ s⁻¹ | B2

The molecules below were run against T1, recombinant human BDCA2 extracellular … (assay: SPR (Biacore), antibody captured on Protein A chip, recombinant BDCA2 ECD flowed over).
Protocol: (§2) BDCA2 antibody binding kinetics were measured using a Biacore surface plasmon resonance (SPR) instrument (GE Life Sciences). Briefly, anti-BDCA2 antibodies were captured on a Protein A sensor chip (GE Life Sciences). The recombinant BDCA2 proteins were then flowed over the captured antibodies over a range of concentrations, at a rate of 50 μL/minute. The data was analyzed to determine kinetic constants using the BIAevaluation software package (GE Life Sciences).

koff | Molecule
0.000327 s⁻¹ | B2

The molecules below were run against T4, recombinant rhesus BDCA2 extracellular … in the same assay as above.
Protocol: as §2

Kd | koff | kon | Molecule
9.2 nM | 0.00157 s⁻¹ | 170000 M⁻¹ s⁻¹ | B2

Reference: patent US20240092914A1 (NEW PARADIGM BIOSCIENCES USA, published 2024)
